# Read-outs that look alike come from different tables or passages of the source.
# Tests used:
# [1] = target: CAT-2200 lambda light chain S176E_Y178E (L1), FLAG-tagged; assay: LCCA, SPR of light-chain tags
# [2] = target: CAT-2200 lambda light chain V133L_S176D_Y178E (L1), FLAG-tagged; assay: LCCA, SPR of light-chain tags
# [3] = target: Pertuzumab kappa light chain S131K_V133G_S176R_T178A (L2), HA-tagged; assay: LCCA, SPR of light-chain tags
# [4] = target: Pertuzumab kappa light chain S131R_V133G_S176R_T178A (L2), HA-tagged; assay: LCCA, SPR of light-chain tags
# [5] = target: CAT-2200 lambda light chain S176E_Y178E (L1), FLAG-tagged; assay: LCCA, SPR of light-chain tags; remark: listed apart in the source
# [6] = target: CAT-2200 lambda light chain V133L_S176D_Y178E (L1), FLAG-tagged; assay: LCCA, SPR of light-chain tags; remark: listed apart in the source
# [7] = target: Pertuzumab kappa light chain S131K_V133G_S176R_T178A (L2), HA-tagged; assay: LCCA, SPR of light-chain tags; remark: listed apart in the source
# [8] = target: Pertuzumab kappa light chain S131R_V133G_S176R_T178A (L2), HA-tagged; assay: LCCA, SPR of light-chain tags; remark: listed apart in the source
# [9] = target: Pertuzumab kappa light chain S131R_V133T_L135K_T178S; assay: LCCA, SPR
# [10] = target: Pertuzumab kappa light chain V133G_S176D_T180E; assay: LCCA, SPR
# [11] = target: CAT-2200 lambda light chain E124Q_T131R; assay: LCCA, SPR
# [12] = target: CAT-2200 lambda light chain E124Q_T131K; assay: LCCA, SPR
# [13] = target: Pertuzumab kappa light chain V133G_S176D_T178E; assay: LCCA, SPR
# [14] = target: Pertuzumab kappa light chain V133G_L135W_S176D_T180E; assay: LCCA, SPR tag read-out
# [15] = target: Pertuzumab kappa light chain V133G_L135W_S176D_T180E; assay: LCCA, SPR tag read-out; remark: listed apart in the source
# [16] = target: CAT-2200 lambda light chain E124Q_T131R; assay: LCCA, SPR; remark: listed apart in the source
# [17] = target: Pertuzumab kappa light chain V133G_S176D_T180E; assay: LCCA, SPR; remark: listed apart in the source
# [18] = target: Pertuzumab kappa light chain V133G_S176D_T178E; assay: LCCA, SPR; remark: listed apart in the source
# [19] = target: Pertuzumab kappa light chain Q124K_V133A_T178R; assay: LCCA, SPR
# [20] = target: CAT-2200 lambda light chain K129T_V133D; assay: LCCA, SPR
# [21] = target: Pertuzumab kappa light chain Q124R_T178R (L2), HA-tagged; assay: LCCA, SPR of light-chain tags
# [22] = target: Pertuzumab kappa light chain Q124R_Q160K_T178R (L2), HA-tagged; assay: LCCA, SPR of light-chain tags
# [23] = target: Pertuzumab kappa light chain Q124R_T178R (L2), HA-tagged; assay: LCCA, SPR of light-chain tags; remark: listed apart in the source
# [24] = target: Pertuzumab kappa light chain Q124R_Q160K_T178R (L2), HA-tagged; assay: LCCA, SPR of light-chain tags; remark: listed apart in the source
# [25] = target: Pertuzumab kappa light chain S131K_S176A_T178S; assay: LCCA, SPR
# [26] = target: Pertuzumab kappa light chain S131K_T178S; assay: LCCA, SPR
# [27] = target: Pertuzumab kappa light chain S131K_S176A_T178S; assay: LCCA, SPR; remark: listed apart in the source
# [28] = target: Pertuzumab kappa light chain S131K_T178S; assay: LCCA, SPR; remark: listed apart in the source
# [29] = target: CAT-2200 lambda light chain V133D_Y178T; assay: LCCA, SPR
# [30] = target: CAT-2200 lambda light chain S176A_Y178W (L1), FLAG-tagged; assay: LCCA, SPR of light-chain tags
# [31] = target: Pertuzumab kappa light chain S176A_T178A (L2), HA-tagged; assay: LCCA, SPR of light-chain tags
substance,measurement,setting,value
Pertuzumab Fab heavy chain L124E_K145T_Q179E_S188W (H2),H2L2:H2L1 normalized median ratio (H2L1 share),[1],15%
same,H2L2:H2L1 normalized median ratio (H2L1 share),[2],12%
same,"H2L2:H2L1 normalized median ratio, H2L2 share",[3],85%
same,H2L2:H2L1 normalized median scalar value ln(r1/f1),[3],1.77
same,"H2L2:H2L1 normalized median ratio, H2L2 share",[4],89%
same,H2L2:H2L1 normalized median scalar value ln(r1/f1),[4],2.13
same,H2L2:H2L1 normalized median ratio (H2L1 share),[5],11%
same,H2L2:H2L1 normalized median ratio (H2L1 share),[6],8%
same,"H2L2:H2L1 normalized median ratio, H2L2 share",[7],88%
same,H2L2:H2L1 normalized median scalar value ln(r1/f1),[7],1.98
same,"H2L2:H2L1 normalized median ratio, H2L2 share",[8],92%
same,H2L2:H2L1 normalized median scalar value ln(r1/f1),[8],2.4
Pertuzumab Fab heavy chain L124E_L143E_K145T,H2L2:H2L1 normalized median scalar value ln(r1/f1),[9],0.62
Pertuzumab Fab heavy chain L124R_Q179K,H2L2:H2L1 normalized median ratio,[10],72%
same,H2L2:H2L1 normalized median scalar value ln(r1/f1),[10],0.95
same,H2L2:H2L1 normalized median ratio,[11],27%
same,H2L2:H2L1 normalized median ratio,[12],28%
same,H2L2:H2L1 normalized median scalar value ln(r1/f1),[13],0.77
same,H2L2:H2L1 median scalar value,[14],-0.41 ln(ratio)
same,H2L2:H2L1 median scalar value,[15],-0.52 ln(ratio)
same,H2L2:H2L1 normalized median ratio,[16],33%
same,H2L2:H2L1 normalized median ratio,[17],73%
same,H2L2:H2L1 normalized median scalar value ln(r1/f1),[17],0.97
same,H2L2:H2L1 normalized median scalar value ln(r1/f1),[18],0.69
Pertuzumab Fab heavy chain L124W_L143E_K145T_Q179E,H2L2:H2L1 normalized median ratio,[19],92%
same,H2L2:H2L1 normalized median scalar value ln(r1/f1),[19],2.51
same,H2L2:H2L1 normalized median ratio,[20],8%
Pertuzumab Fab heavy chain L143E_K145T_Q179E (H2),H2L2:H2L1 normalized median scalar value ln(r1/f1),[21],2.22
same,H2L2:H2L1 normalized median scalar value ln(r1/f1),[22],2.62
same,H2L2:H2L1 normalized median scalar value ln(r1/f1),[23],3.16
same,H2L2:H2L1 normalized median scalar value ln(r1/f1),[24],3.21
Pertuzumab Fab heavy chain L143T_S188D,H2L2:H2L1 normalized median ratio,[25],54%
same,H2L2:H2L1 normalized median scalar value ln(r1/f1),[25],0.15
same,H2L2:H2L1 normalized median scalar value ln(r1/f1),[26],-0.25
same,H2L2:H2L1 normalized median scalar value ln(r1/f1),[27],1.51
same,H2L2:H2L1 normalized median scalar value ln(r1/f1),[28],0.84
same,H2L2:H2L1 normalized median ratio,[29],46%
Pertuzumab Fab heavy chain S186L_S188W (H2),H2L2:H2L1 normalized median ratio (H2L1 share),[30],33%
same,"H2L2:H2L1 normalized median ratio, H2L2 share",[31],67%
same,H2L2:H2L1 normalized median scalar value ln(r1/f1),[31],0.7
